Laboratory results as given in paper PMC3404065.

What was measured:
[1] = target: F-actin polymerised from purified G-actin (Cytoskeleton APHL99-A) (UniProt P60709); test: co-sedimentation; high-speed F-actin co-sedimentation; F-actin polymerised from Mg-ATP-G-actin (50 mM KCl, 1 mM MgCl2, 1 mM ATP); 30 min at room temperature, Airfuge ~100,000 x g 30 min; supernatant and pellet on SDS-PAGE, Coomassie Blue or silver stain
[2] = target: F-actin polymerised from purified G-actin (Cytoskeleton APHL99-A) (UniProt P60709); test: co-sedimentation; supernatant-depletion method, equilibrium binding to ADP-F-actin (filaments from ADP-G-actin made with 20 U/mL hexokinase and 1 mM glucose); GST-ABD left in the supernatant by anti-GST immunoblot and densitometry
[3] = target: F-actin polymerised from purified G-actin (Cytoskeleton APHL99-A) (UniProt P60709); test: co-sedimentation; supernatant-depletion method, equilibrium binding to ATP/ADP-Pi-F-actin (filaments from ATP-G-actin); GST-ABD left in the supernatant by anti-GST immunoblot and densitometry; room temperature

stoichiometry N ([1]; scale: actin per GST-ABD): 1.4 | stoichiometry N ([1]; scale: ratio GST-ABD to actin, after correction for the 15-20% GST cleavage product): 1 | Kd [2]: 4700 nM | Kd [3]: 53 nM
Substance: GST-TEM4 81-135 (GST-ABD) (from UniProt Q96PE2 81-135) (domain or fragment)
